According to patent US20190119318A1:
Blank lines part the entries; values can stand above or below the substance they belong to.

Columns and labels:
[1] = biological target: human polyclonal IgG (Gammanorm) (human); assay: column DBC; vs reference Zvar4; 0.5 M NaOH
[2] = biological target: human polyclonal IgG (Gammanorm) (human); assay: column DBC; vs reference Zvar4; 1.0 M NaOH
[3] = biological target: human polyclonal IgG (Gammanorm) (human); assay: column DBC; ligand 9.7 mg/ml; after 6 x 4 h 0.5 M NaOH
[4] = biological target: human polyclonal IgG (Gammanorm) (human); assay: column DBC; ligand 9.7 mg/ml; after 6 x 4 h 1.0 M NaOH
[5] = biological target: human polyclonal IgG (Gammanorm) (human); assay: column DBC, 6 min residence; agarose beads; ligand 9.7 mg/ml
[6] = biological target: human polyclonal IgG (Gammanorm) (human); assay: as above; remark: listed apart in the source
[7] = biological target: human polyclonal IgG (Gammanorm) (human); assay: column DBC; ligand […]; after 6 x 4 h 0.5 M NaOH
[8] = biological target: human polyclonal IgG (Gammanorm) (human); assay: column DBC, 6 min residence; agarose beads; ligand […]
[9] = biological target: human polyclonal IgG (Gammanorm) (human); assay: column DBC; ligand 7.0 mg/ml; after 6 x 4 h 0.5 M NaOH
[10] = biological target: human polyclonal IgG (Gammanorm) (human); assay: column DBC, 6 min residence; agarose beads; ligand 7.0 mg/ml
[11] = biological target: human polyclonal IgG (Gammanorm) (human); assay: column DBC; ligand […]; after 6 x 4 h 1.0 M NaOH
[12] = biological target: human polyclonal IgG (Gammanorm) (human); assay: column DBC; ligand 7.2 mg/ml; after 6 x 4 h 0.5 M NaOH
[13] = biological target: human polyclonal IgG (Gammanorm) (human); assay: column DBC, 6 min residence; agarose beads; ligand […]; remark: listed apart in the source
[14] = biological target: human polyclonal IgG (Gammanorm) (human); assay: column DBC, 6 min residence; agarose beads; ligand 7.2 mg/ml
[15] = biological target: human polyclonal IgG (Gammanorm) (human); assay: column DBC; base C3; ligand […]
[16] = biological target: human polyclonal IgG (Gammanorm) (human); assay: column DBC; base A20; ligand […]
[17] = biological target: human polyclonal IgG (Gammanorm) (human); assay: column DBC; base A33; ligand […]; settings: ligand content 6.5 mg/ml
[18] = biological target: human polyclonal IgG (Gammanorm) (human); assay: column DBC; base A38; ligand […]
[19] = biological target: human polyclonal IgG (Gammanorm) (human); assay: column DBC; base A54; ligand […]; settings: ligand content 6.7 mg/ml
[20] = biological target: human polyclonal IgG (Gammanorm) (human); assay: column DBC; base A56; ligand […]; settings: ligand content 7.1 mg/ml
[21] = biological target: human polyclonal IgG (Gammanorm) (human); assay: column DBC; base H31; ligand […]
[22] = biological target: human polyclonal IgG (Gammanorm) (human); assay: column DBC; base H35; ligand […]
[23] = biological target: human polyclonal IgG (Gammanorm) (human); assay: column DBC; base H40; ligand […]; settings: ligand content 6.9 mg/ml
[24] = biological target: human polyclonal IgG (Gammanorm) (human); assay: column DBC; base A62a; ligand […]
[25] = biological target: human polyclonal IgG (Gammanorm) (human); assay: column DBC; base A56-2; ligand […]
[26] = biological target: human polyclonal IgG (Gammanorm) (human); assay: SPR; vs reference Zvar6; 0.5 M NaOH
[27] = biological target: human polyclonal IgG (Gammanorm) (human); assay: SPR; after 100 CIP cycles 0.5 M NaOH
[28] = biological target: human polyclonal IgG (Gammanorm) (human); assay: column DBC; base A20; ligand 6.4 mg/ml
[29] = biological target: human polyclonal IgG (Gammanorm) (human); assay: column DBC; base A56; ligand 7.9 mg/ml
[30] = biological target: human polyclonal IgG (Gammanorm) (human); assay: column DBC; base C3; ligand 11.9 mg/ml
[31] = biological target: human polyclonal IgG (Gammanorm) (human); assay: column DBC; base C3; ligand 15.1 mg/ml
[32] = biological target: human polyclonal IgG (Gammanorm) (human); assay: column DBC; base C4; ligand 11.2 mg/ml
[33] = biological target: human polyclonal IgG (Gammanorm) (human); assay: column DBC; base C4; ligand 15.2 mg/ml
[34] = biological target: human polyclonal IgG (Gammanorm) (human); assay: column DBC; base S9; ligand 18.4 mg/ml
[35] = biological target: human polyclonal IgG (Gammanorm) (human); assay: column DBC; base A20; ligand 21.1 mg/ml
[36] = biological target: human polyclonal IgG (Gammanorm) (human); assay: column DBC; base A38; ligand 11.6 mg/ml
[37] = biological target: human polyclonal IgG (Gammanorm) (human); assay: column DBC; base A38; ligand 15.8 mg/ml
[38] = biological target: human polyclonal IgG (Gammanorm) (human); assay: column DBC; base A54; ligand 21.1 mg/ml
[39] = biological target: human polyclonal IgG (Gammanorm) (human); assay: column DBC; base A56; ligand 15.2 mg/ml
[40] = biological target: human polyclonal IgG (Gammanorm) (human); assay: column DBC; base A56; ligand 19.2 mg/ml
[41] = biological target: human polyclonal IgG (Gammanorm) (human); assay: column DBC; base A62a; ligand 9.6 mg/ml
[42] = biological target: human polyclonal IgG (Gammanorm) (human); assay: column DBC; base A63b; ligand 6.4 mg/ml
[43] = biological target: human polyclonal IgG (Gammanorm) (human); assay: column DBC; base H31; ligand 20.0 mg/ml
[44] = biological target: human polyclonal IgG (Gammanorm) (human); assay: column DBC; base H35; ligand 12.3 mg/ml
[45] = biological target: human polyclonal IgG (Gammanorm) (human); assay: column DBC; base H35; ligand 20.3 mg/ml
[46] = biological target: human polyclonal IgG (Gammanorm) (human); assay: column DBC; base H40; ligand 23.0 mg/ml
[47] = biological target: human polyclonal IgG (Gammanorm) (human); assay: column DBC; base P10; ligand 19.0 mg/ml
[48] = biological target: human polyclonal IgG (Gammanorm) (human); assay: column DBC; base A63b; ligand 10.6 mg/ml
[49] = biological target: human polyclonal IgG (Gammanorm) (human); assay: column DBC; base A63b; ligand 16.7 mg/ml
[50] = biological target: human polyclonal IgG (Gammanorm) (human); assay: column DBC; base A56-2; ligand 12.5 mg/ml
[51] = biological target: human polyclonal IgG (Gammanorm) (human); assay: column DBC; base A56-2; ligand 19.2 mg/ml
[52] = biological target: human polyclonal IgG (Gammanorm) (human); assay: column DBC; ligand 10.8 mg/ml; after 6 x 4 h 0.5 M NaOH
[53] = biological target: human polyclonal IgG (Gammanorm) (human); assay: column DBC, 6 min residence; agarose beads; ligand 10.8 mg/ml

- capacity retention relative to ref. after six 4 h cycles [1]: 1.53
- capacity retention relative to ref. after six 4 h cycles [2]: 1.44
- remaining IgG capacity Qb10 after six 4 h cycles [3]: 52 mg/mL
- remaining IgG capacity after six 4 h cycles [3]: 92%
- remaining IgG capacity Qb10 after six 4 h cycles [4]: 48.1 mg/mL
- remaining IgG capacity after six 4 h cycles [4]: 77%
- initial IgG capacity Qb10 [5]: 56.3 mg/mL
- initial IgG capacity Qb10 [6]: 62.1 mg/mL
Substance: Zvar(N11K,H18K,S33K,D37E,A42R,N43A,L44I,K50R,L51Y)4 with an additional N-terminal cysteine (designed binder)

- capacity retention relative to ref. after six 4 h cycles ([1]; ligand content 7.0 mg/ml): 1.5
- remaining IgG capacity Qb10 after six 4 h cycles [7]: 46.2 mg/mL
- remaining IgG capacity after six 4 h cycles [7]: 93%
- initial IgG capacity Qb10 [8]: 50 mg/mL
- remaining IgG capacity Qb10 after six 4 h cycles [9]: 44.1 mg/mL
- remaining IgG capacity after six 4 h cycles [9]: 90%
- initial IgG capacity Qb10 [10]: 49.1 mg/mL
Substance: Zvar(Q9A,N11E,N28A,N43A)4 with an additional N-terminal cysteine (designed binder)

- capacity retention relative to ref. after six 4 h cycles ([1]; ligand content 7.2 mg/ml): 1.5
- capacity retention relative to ref. after six 4 h cycles [2]: 1.67
- remaining IgG capacity Qb10 after six 4 h cycles [7]: 53.6 mg/mL
- remaining IgG capacity after six 4 h cycles [7]: 95%
- remaining IgG capacity Qb10 after six 4 h cycles [11]: 56 mg/mL
- remaining IgG capacity after six 4 h cycles [11]: 93%
- initial IgG capacity Qb10 [8]: 56.3 mg/mL
- remaining IgG capacity Qb10 after six 4 h cycles [12]: 44.2 mg/mL
- remaining IgG capacity after six 4 h cycles [12]: 90%
- initial IgG capacity Qb10 [13]: 60.3 mg/mL
- initial IgG capacity Qb10 [14]: 49 mg/mL
Substance: Zvar(Q9A,N11E,Q40V,A42K,N43A,L44I)4 with an additional N-terminal cysteine (designed binder)

Substance: Zvar(Q9A,N11E,Q40V,A42K,N43A,L44I)6 (designed binder)
- Qb10% 2.4 min [15]: 48 mg/mL
- Qb10% 6 min [15]: 59 mg/mL
- Qb10% 2.4 min [16]: 38 mg/mL
- Qb10% 6 min [16]: 64 mg/mL
- Qb10% 2.4 min [17]: 44 mg/mL
- Qb10% 6 min [17]: 53 mg/mL
- Qb10% 2.4 min [18]: 47 mg/mL
- Qb10% 6 min [18]: 57 mg/mL
- Qb10% 2.4 min [19]: 38 mg/mL
- Qb10% 6 min [19]: 46 mg/mL
- Qb10% 2.4 min [20]: 48 mg/mL
- Qb10% 6 min [20]: 57 mg/mL
- Qb10% 2.4 min ([21]; ligand content 6.5 mg/ml): 37 mg/mL
- Qb10% 6 min ([21]; ligand content 6.5 mg/ml): 38 mg/mL
- Qb10% 2.4 min ([21]; ligand content 10.4 mg/ml): 50 mg/mL
- Qb10% 6 min ([21]; ligand content 10.4 mg/ml): 61 mg/mL
- Qb10% 2.4 min [22]: 36 mg/mL
- Qb10% 6 min [22]: 49 mg/mL
- Qb10% 2.4 min [23]: 50 mg/mL
- Qb10% 6 min [23]: 56 mg/mL
- Qb10% 2.4 min [24]: 62 mg/mL
- Qb10% 6 min [24]: 84 mg/mL
- Qb10% 2.4 min [25]: 50 mg/mL
- Qb10% 6 min [25]: 58 mg/mL
- capacity relative to ref. 100 cycles [26]: 1.3
- remaining capacity 100 cycles [27]: 87%
- Qb10% 2.4 min [28]: 41 mg/mL
- Qb10% 6 min [28]: 56 mg/mL
- Qb10% 2.4 min [29]: 47 mg/mL
- Qb10% 6 min [29]: 55 mg/mL
- Qb10% 2.4 min [30]: 51 mg/mL
- Qb10% 6 min [30]: 73 mg/mL
- Qb10% 2.4 min [31]: 43 mg/mL
- Qb10% 6 min [31]: 61 mg/mL
- Qb10% 2.4 min [32]: 62 mg/mL
- Qb10% 6 min [32]: 74 mg/mL
- Qb10% 2.4 min [33]: 57 mg/mL
- Qb10% 6 min [33]: 82 mg/mL
- Qb10% 2.4 min [34]: 56 mg/mL
- Qb10% 6 min [34]: 75 mg/mL
- Qb10% 2.4 min [35]: 44 mg/mL
- Qb10% 6 min [35]: 43 mg/mL
- Qb10% 2.4 min [36]: 48 mg/mL
- Qb10% 6 min [36]: 72 mg/mL
- Qb10% 2.4 min [37]: 36 mg/mL
- Qb10% 6 min [37]: 62 mg/mL
- Qb10% 2.4 min [38]: 38 mg/mL
- Qb10% 6 min [38]: 65 mg/mL
- Qb10% 2.4 min [39]: 48 mg/mL
- Qb10% 6 min [39]: 76 mg/mL
- Qb10% 2.4 min [40]: 55 mg/mL
- Qb10% 6 min [40]: 80 mg/mL
- Qb10% 2.4 min [41]: 56 mg/mL
- Qb10% 6 min [41]: 72 mg/mL
- Qb10% 2.4 min [42]: 42 mg/mL
- Qb10% 6 min [42]: 46 mg/mL
- Qb10% 2.4 min [43]: 31 mg/mL
- Qb10% 6 min [43]: 52 mg/mL
- Qb10% 2.4 min [44]: 31 mg/mL
- Qb10% 6 min [44]: 54 mg/mL
- Qb10% 2.4 min [45]: 20 mg/mL
- Qb10% 6 min [45]: 43 mg/mL
- Qb10% 2.4 min [46]: 41 mg/mL
- Qb10% 6 min [46]: 65 mg/mL
- Qb10% 6 min [47]: 76 mg/mL
- Qb10% 2.4 min [48]: 49 mg/mL
- Qb10% 6 min [48]: 60 mg/mL
- Qb10% 2.4 min [49]: 53 mg/mL
- Qb10% 6 min [49]: 69 mg/mL
- Qb10% 2.4 min [50]: 59 mg/mL
- Qb10% 6 min [50]: 72 mg/mL
- Qb10% 2.4 min [51]: 61 mg/mL
- Qb10% 6 min [51]: 82 mg/mL

- capacity retention relative to ref. after six 4 h cycles [1]: 1.3
- remaining IgG capacity Qb10 after six 4 h cycles [52]: 52.5 mg/mL
- remaining IgG capacity after six 4 h cycles [52]: 92%
- initial IgG capacity Qb10 [53]: 56.9 mg/mL
Substance: Zvar(Q9A,N11K,H18K,D37E,A42R)4 with an additional N-terminal cysteine (designed binder)
